Series [1] is classed as physicochemical. As to conditions: 0.2 mg/mL in PBS, three samples. Here is the method:
3.4 Analysis of thermostability by Differential Scanning Fluorimetry Briefly, triplicate reaction mixes of antibodies at 0.2 mg/mL and SYPRO Orange dye (ThermoFisher) were prepared in 25 μL of PBS, transferred to wells of MicroAmp Optical 96-Well Reaction Plates (ThermoFisher), and sealed with MicroAmp Optical Adhesive Film (ThermoFisher). Melting curves were run in a 7500 fast Real-Time PCR system (Applied Biosystems) selecting TAMRA as reporter and ROX as passive reference. The thermal profile included an initial step of 2 min at 25° C. and a final step of 2 min at 99° C., with a ramp rate of 1.2%. The first derivative of the raw data was plotted as a function of temperature to obtain the derivative melting curves. Melting temperatures (Tm) of the antibodies were extracted from the peaks of the derivative curves.
The thermostability of the variant was also analysed by Differential Scanning Fluorimetry analysis as described in Example 3.4.

Series [2] relates to FaDu cells. Description: Phosphoprotein Antibody Array. The class given is cell-based, human. As to conditions: 50 μg/ml 4 hrs, NRG 100 ng/ml. Here is the method: FaDu cells were seeded in wells of a 6 well plate with 10% serum at 37° C., 5% CO2. After 16 hrs, cells were starved by culture overnight in 1% FBS cell culture medium. On the following day cells were treated with 50 μg/ml anti-HER3 antibody 10D1 for 4 hrs, followed by 15 min stimulation with NRG (100 ng/ml). Proteins were then extracted, quantified using standard Bradford protein assay, and incubated overnight with pre-blocked Phosphoprotein Antibody Array membrane (Ray Biotech) at 4° C. The membrane was then washed with washing buffer and incubated with detection antibody cocktail for 2 hrs at room temperature, followed by washing and incubation with HRP-Conjugated anti-IgG. After 2 hrs the membrane was washed and probed using the kit detection buffer. Images were captured with Syngene Gbox imaging system, the intensity of each dot/phosphoprotein was measured and percent inhibition was calculated by comparison with intensity measured for cells treated in the same way in the absence of the antibody.

The target of series [3] is heterodimerisation of HER3 and HER2 (Homo sapiens, UniProt P21860). Kind of series: ELISA inhibition of HER2-HER3 interaction. The class given is biochemical. As to conditions: Example 4.1: His-tagged HER2 coated, biotinylated HER3. Here is the method: The anti-HER3 antibodies were analysed for their ability to inhibit heterodimerisation of HER3 and HER2. Briefly, 96-well plates (Nunc, Denmark) were coated with 0.1 μg/ml His-tagged HER2 protein in PBS for 16 h at 4° C. After blocking for 1 h with 1% BSA in PBS at room temperature, recombinant biotinylated human HER3 protein was added in the presence of different concentrations of anti-HER3 antibody clone 10D1, and pates were incubated for 1 h at room temperature. Plates were subsequently washed three times, and then incubated with HRP-conjugated secondary antibody for 1 h at room temperature. After washing, plates were developed with colorimetric detection substrate 3,3′,5,5′-tetramethylbenzidine (Turbo-TMB; Pierce, USA) for 10 min. The reaction was stopped with 2M H2SO4, and OD was measured at 450 nm.
Plate-based ELISA dimerisation assays were carried out according to standard protocols. Plates were coated with 1 μg/ml HER2-Fc protein. […] Plates were then washed and incubated for 1 hour with secondary anti-HIS HRP antibody. Plates were washed, treated with TMB for 10 mins and the reaction was stopped using 2M H2SO4 stop solution. The absorbance was read at 450 nm.
On the technique in general: In an ELISA, binding on a coated surface is turned into a signal by an enzyme label.

Series [4] is described as follows: Toxicity in BALB/c mice (haematology, clinical chemistry, observations). The class given is in vivo, mouse. The following applies: single IP dose 1000 μg. Here is the method: Hemotoxicity was investigated in an experiment in which 6-8 week old female BALB/c mice (20-25 g) were injected intraperitoneally with a single dose of 1000 μg anti-HER3 10D1 antibody or an equal volume of PBS. Blood samples were obtained at 96 hours post injection and analysed for numbers of different types of white blood cells by flow cytometry and electrolyte indices for NA^+, K^+, and Cl^−.
Mice were also analysed for correlates hepatotoxicity, nephrotoxicity and pancreatic toxicity at 96 hours post injection. […] Left bars represent vehicle, right bars represent 10D1 treatment, end points of the Charles River reference range indicated with dotted lines.
3 mice were injected with each treatment, 4 mice were injected with PBS control. Blood samples were obtained at 96 hours post injection and analysed for RBC indices (total RBC count, haematocrit, haemoglobin, platelet count, mean corpuscular volume, mean corpuscular haemoglobin, mean corpuscular haemoglobin concentration) and WBC indices (total WBC count, lymphocyte count, neutrophil count, monocyte count). Analysis was performed using a HM5 Hematology Analyser.
A further study was performed in the BALB/c mice to assess the toxicological effects of repeat doses of 500 μg (˜25 mg/kg) 10D1 F.FcA or 10D1F.FcB. Antibody was administered once a week for four weeks. Blood was obtained 28 days after the first administration.

The subject of series [5] is FaDu cells. Description: CCK-8 proliferation assay, FaDu. The class given is cell-based, human. The following applies: 5 days. Here is the method:
Briefly, N87 and FaDu cells were treated with serially diluted concentrations of anti-HER3 antibody 10D1, starting from 100 μg/ml with a 9-point half log dilution. Cell proliferation was measuring using the CCK-8 proliferation assay (Dojindo, Japan) after a period of 5 days, in accordance with the manufacturer's instructions. Briefly 1× CCK-8 solution was added to each well followed by incubation for 2 h at 37° C. The OD was then measured at 450 nm.
In general terms: Tetrazolium dyes change colour on reduction, which living cells bring about.

Series [6] has as its system ACHN cell-line derived mouse model of renal cell carcinoma. Description: ACHN cell-line derived xenograft model. The series is classed as in vivo. As to conditions: IP biweekly 500 μg, 7 doses. Here is the method: (§1) Tumor volumes were measured 3 times a week using a digital caliper and calculated using the formula [L ×W2/2]. Study End point was considered to have been reaches once the tumors of the control arm measured >1.5 cm in length.
The model was established by subcutaneous injection of 1×10^6 ACHN cells into the right flanks of female NCr nude mice (n=6 mice per treatment group).
10D1 was administered IP, biweekly at 500 μg per dose (for a total of 7 doses); a control treatment group received an equal volume of PBS.

The test system of series [7] is HCC-95 cell-line derived mouse model of squamous cell lung carcinoma. Description: HCC-95 cell-line derived xenograft model. The class given is in vivo. The following applies: HCC-95, IP biweekly 500 μg, 4 doses. Here is the method:
as §1
The model was established by subcutaneous injection of 1×10^6 HCC-95 cells into the right flanks of female NCr nude mice (n=6 mice per treatment group).
10D1 was administered IP, biweekly at 500 μg per dose (for a total of 4 doses); a control treatment group received an equal volume of PBS.

The record followed here is patent publication US20250122303A1, “TREATMENT AND PREVENTION OF CANCER USING HER3 ANTIGEN-BINDING MOLECULES” (Hummingbird Bioscience Pte. Ltd., priority 2021, published 2025).

B1: 10D1: anti-HER3 antibody clone, VH SEQ ID NO:24, VL SEQ ID NO:74; [1] of Example 2.2 (antibody, V domains shown)
VH: DVQLQESGPDLVKPSQSLSLTCTVTGYSITSGYSWHWIRQFPGNKLEWMGSIHYSGGTNYNPSLKSRISITRDTSKNQFFLQLNSVTTEDTATYFCARMTTAPRYPFDYWGQGTTLTVSS
VL: DIVMTQSQKFMSTSVGDRVSVTCKASQIVGSNVAWYQQKPGQSPKPLIYSASYRYSGVPDRFTASGSGTDFTLTITNVQSEDLAEYFCQQYSSHPLTFGAGTKLELK
On to B1, for which, in series [1], the Tm came to 70.3 °C. Also, the “intracellular signalling pathways affected” value in the series with FaDu cells [2] was “inhibit P13K/AKT/mTOR and MAPK signalling”. Also, the “inhibition of interaction between HER2 and HER3” value in series [3] was “inhibit interaction between HER2 and HER3 in a dose-dependent fashion”. The “clinical signs, gross necroscopy or weight” value in series [4] is listed as “No differences”. In series [4] (96 hours), the “kidney, liver or pancreatic indices” value is on record as “no effect on the kidney, liver or pancreatic indices”; the “numbers of different blood cell types and electrolyte indices” value is listed as “within the Charles River reference range”. Moreover, the cell proliferation result in the series with FaDu cells [5] is given as “dose-dependent inhibition of cell proliferation”. Besides, in series [6], the “inhibition of tumor growth” value is approximately 61%. For the same molecule, the “inhibition of tumor growth” value in series [7] was approximately 90%.
